Laboratory results reported in the supplement of paper PMC10201428.
± gives the standard deviation of the averaged measurements.

Columns and labels:
[1] = test system: VchCAST RNA-guided transposition machinery (E. coli BL21(DE3) host, lacZ target); test: relative integration efficiency (T-RL orientation) vs wild-type transposon end (log2 (normalized fold change)); transposon end mutated: right end (5 bp flank + 75 bp right end); higher = more efficient transposition
How it was run: (§1)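 A T7-driven effector plasmid encoding a CRISPR array, tniQ-cas8-cas7-cas6 and tnsA-tnsB-tnsC was co-transformed into E. coli BL21(DE3) together with a pUC57 mini-transposon donor holding barcoded pools of 1549 left-end or 1849 right-end variants. Transformants were plated with 0.1 mM IPTG at 37°C for 18 h. Illumina sequencing of PCR-amplified input plasmids and genomic integration junctions gave barcode abundances, and relative integration efficiency is their output/input fold change, normalised to reference barcodes and log-transformed.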

[2] = test system: VchCAST RNA-guided transposition machinery (E. coli BL21(DE3) host, lacZ target); test: relative integration efficiency (T-LR orientation) vs wild-type transposon end (log2 (normalized fold change)); transposon end mutated: right end (5 bp flank + 75 bp right end); higher = more efficient transposition
How it was run: as §1

Sequence | relative integration efficiency (log2) [1] | relative integration efficiency (log2) [2]
ACATTTGTTGATACAACCATAAAATGATAATTACACCCATAAATTGATAATTATCACAAAACGCCCGGTCGCGGTAAGAGGATCATAGTCAGACCAACATTGCTACGACCCGTATTCGCACCGACAC | -0.437 ± 0.16 | 2.81 ± 0.094
ACATTTGTTGATACAACCATAAAATGATAATTACACCCATAAATTGATAATTATCACAAAACTAAATTGATATTGCCTCTGATCATAGTCAGACCAACATTGCTACGACCCGTATTCGCACCGACAC | -0.531 ± 0.15 | 2.45 ± 0.22
ACATTTGTTGATACAACCATAAAATGATAATTACACCCATAAATTGATAATTATCACAAACATAAATTGATATTGCCTCTGATCATAGTCAGACCAACATTGCTACGACCCGTATTCGCACCGACAC | -0.114 ± 0.033 | 0.898 ± 0.13
ACATTTGTTGATACAACCATAAAATGATAATTACACCCATAAATTGATAATTATCACACAAATAAATTGATATTGCCTCTGATCATAGTCAGACCAACATTGCTACGACCCGTATTCGCACCGACAC | -1.11 ± 0.18 | 2.06 ± 0.028
ACATTTGTTGATACAACCATAAAATGATAATTACACCCATAAATTGATAATTATCACACAACGAAATTGATATTGCCTCTGATCATAGTCAGACCAACATTGCTACGACCCGTATTCGCACCGACAC | -0.936 ± 0.18 | 2.18 ± 0.14
ACATTTGTTGATACAACCATAAAATGATAATTACACCCATAAATTGATAATTATCACACAACGCCCGGTCGCGGTAAGAGGATCATAGTCAGACCAACATTGCTACGACCCGTATTCGCACCGACAC | -0.696 ± 0.091 | 2.32 ± 0.24
ACATTTGTTGATACAACCATAAAATGATAATTACACCCATAAATTGATAATTATCACACCACGCAATTGATATTGCCTCTGATCATAGTCAGACCAACATTGCTACGACCCGTATTCGCACCGACAC | -0.677 ± 0.11 | 2.1 ± 0.088
ACATTTGTTGATACAACCATAAAATGATAATTACACCCATAAATTGATAATTATCACACCACGCCCGGTCGCGGTAAGAGGATCATAGTCAGACCAACATTGCTACGACCCGTATTCGCACCGACAC | -0.546 ± 0.089 | 2.46 ± 0.034
ACATTTGTTGATACAACCATAAAATGATAATTACACCCATAAATTGATAATTATCACACCACTAAATTGATATTGCCTCTGATCATAGTCAGACCAACATTGCTACGACCCGTATTCGCACCGACAC | -0.503 ± 0.044 | 2.35 ± 0.27
ACATTTGTTGATACAACCATAAAATGATAATTACACCCATAAATTGATAATTATCACACCCAGCCCGGTCGCGGTAAGAGGATCATAGTCAGACCAACATTGCTACGACCCGTATTCGCACCGACAC | -0.344 ± 0.16 | 2.65 ± 0.059
ACATTTGTTGATACAACCATAAAATGATAATTACACCCATAAATTGATAATTATCACACCCATAAAGGTCGCGGTAAGAGGATCATAGTCAGACCAACATTGCTACGACCCGTATTCGCACCGACAC | -0.82 ± 0.057 | 2.16 ± 0.14
ACATTTGTTGATACAACCATAAAATGATAATTACACCCATAAATTGATAATTATCACACCCATAAATGTCGCGGTAAGAGGATCATAGTCAGACCAACATTGCTACGACCCGTATTCGCACCGACAC | -0.671 ± 0.0087 | 2.19 ± 0.15
ACATTTGTTGATACAACCATAAAATGATAATTACACCCATAAATTGATAATTATCACACCCATAAATTGAGCGGTAAGAGGATCATAGTCAGACCAACATTGCTACGACCCGTATTCGCACCGACAC | -0.428 ± 0.035 | 1.6 ± 0.023
ACATTTGTTGATACAACCATAAAATGATAATTACACCCATAAATTGATAATTATCACACCCATAAATTGATACTCTGATCATAGTCAGACCAACATTGCTACGACCCGTATTCGCACCGACACTGAC | 0.0156 ± 0.031 | 0.201 ± 0.14
ACATTTGTTGATACAACCATAAAATGATAATTACACCCATAAATTGATAATTATCACACCCATAAATTGATAGGTAAGAGGATCATAGTCAGACCAACATTGCTACGACCCGTATTCGCACCGACAC | -0.281 ± 0.02 | 0.884 ± 0.061
ACATTTGTTGATACAACCATAAAATGATAATTACACCCATAAATTGATAATTATCACACCCATAAATTGATATCTCTGATCATAGTCAGACCAACATTGCTACGACCCGTATTCGCACCGACACTGA | -0.049 ± 0.013 | -0.209 ± 0.13
ACATTTGTTGATACAACCATAAAATGATAATTACACCCATAAATTGATAATTATCACACCCATAAATTGATATGTAAGAGGATCATAGTCAGACCAACATTGCTACGACCCGTATTCGCACCGACAC | -0.111 ± 0.0046 | 0.00487 ± 0.23
ACATTTGTTGATACAACCATAAAATGATAATTACACCCATAAATTGATAATTATCACACCCATAAATTGATATTCGGACTGATCATAGTCAGACCAACATTGCTACGACCCGTATTCGCACCGACAC | -0.0234 ± 0.0045 | 0.106 ± 0.13
